Assay results published in patent US20190352376A1 (NATIONAL RESEARCH COUNCIL OF CANADA, published 2019).

What was measured:
[1] = biological target: hemagglutinin of H4N6 A/Duck/Czechoslovakia/56 (influenza virus H4N6 …, UniProt P19696 17-564); assay: Western blot; virus, eggs
[2] = biological target: hemagglutinin of H7N3/A/Turkey/Oregon/71 (influenza virus H7N3 A/Turkey/Oregon/71, UniProt P03458 19-560); assay: Western blot; virus, eggs
[3] = biological target: T1, hemagglutinin of H3N2 A/Brisbane/10/2007 (influenza virus H3N2 A/Brisbane/10/2007); assay: dot blot, 4M urea; rHA (BEI Res.), dot 6
T1 construct: rHA (BEI Resources)

[4] = biological target: T2, hemagglutinin of H1N1 A/Puerto Rico/8/1934 (influenza virus H1N1 A/Puerto …, UniProt P03452 18-528); assay: dot blot, 4M urea; rHA (Prot. Sc.), dot 1
[5] = biological target: hemagglutinin of H3N2 A/Wisconsin/67/2005 (influenza virus H3N2 A/Wisconsin/67/2005); assay: dot blot, 4M urea; rHA (Prot. Sc.), dot 4
[6] = biological target: hemagglutinin of B/Brisbane/60/2008 (influenza virus B/Brisbane/60/2008); assay: dot blot, 4M urea; rHA (Prot. Sc.), dot 11
[7] = biological target: T3, hemagglutinin of H1N1 A/California/06/2008 (influenza virus H1N1 …); assay: dot blot, 4M urea; rHA (Imm. Techn.), dot 2
[8] = biological target: T4, hemagglutinin of H3N2 A/Hong Kong/8/1968 (influenza virus H3N2 A/Hong Kong/8/1968); assay: dot blot, 4M urea; rHA (Imm. Techn.), dot 5
[9] = biological target: T2, hemagglutinin of H1N1 A/Puerto …; assay: dot blot, 4M urea; virus (HEK293/NRC), dot 17
[10] = biological target: T4, hemagglutinin of H3N2 A/Hong Kong/8/1968; assay: dot blot, 4M urea; virus (HEK293/NRC), dot 19
[11] = biological target: T3, hemagglutinin of H1N1 …; assay: dot blot, 4M urea; inactivated virus (egg/NIBSC), dot 12
[12] = biological target: hemagglutinin of H3N2 A/Texas/50/2012 (influenza virus H3N2 A/Texas/50/2012); assay: dot blot, 4M urea; inactivated virus (egg/NIBSC), dot 13
[13] = biological target: hemagglutinin of B/Massachusetts/2/2012 (influenza virus B/Massachusetts/2/2012); assay: dot blot, 4M urea; inactivated virus (egg/NIBSC), dot 14
[14] = biological target: hemagglutinin of H2N2 A/Singapore/1/57 (influenza virus H2N2 A/Singapore/1/57, UniProt Q67333 16-562); assay: Western blot; virus, eggs
[15] = biological target: hemagglutinin of H8N4 A/Turkey/Ontario/6118/68 (influenza virus H8N4 …, UniProt P03456 16-565); assay: Western blot; virus, eggs
[16] = biological target: hemagglutinin of H9N2 A/Turkey/Wisconsin/1/66 (influenza virus H9N2 …, UniProt P03457 19-560); assay: Western blot; virus, eggs
[17] = biological target: hemagglutinin of H13N6 A/Gull/Maryland/704/77 (influenza virus H13N6 …, UniProt P13103 19-566); assay: Western blot; virus, eggs
[18] = biological target: hemagglutinin of H12N5 A/Duck/Alberta/60/76 (influenza virus H12N5 …, UniProt P03446 17-564); assay: Western blot; virus, MDCK cells

| Binder | binding result [1] | binding result [2] | signal intensity [3] | signal intensity [4] | signal intensity [5] | signal intensity [6] | signal intensity [7] | signal intensity [8] | signal intensity [9] | signal intensity [10] | signal intensity [11] | signal intensity [12] | signal intensity [13] | binding result [14] | binding result [15] | binding result [16] | binding result [17] | binding result [18] |
| --- | --- | --- | --- | --- | --- | --- | --- | --- | --- | --- | --- | --- | --- | --- | --- | --- | --- | --- |
| F211-11H12 (antibody, V domains shown) VH: DVQLQESGPGLVKPSQSLSLTCSVTGYSITSDYYWNWIRQFPGNKLEWMAYIGYDGTKNYNPSLKNRISITRDTSKNQFFLKLNSVTTDDTATYYCTRDRANWDDYFDYWGQGTTLTVSS VL: DIVMSQSPSSLAVSVGEKVTMSCKSSQSLLNSRNQKNHLAWYQQKPGQSPKLLIYWASTRESGVPDRFTGDGSGTDFTLTISSVKAEDLAVYYCQQYYTYRTFGGGTKLEIK | no binding (tested: 2µg/ml) | no binding (tested: 2µg/ml) | 280 arbitrary fluorescent units | 20300 arbitrary fluorescent units | 176 arbitrary fluorescent units | 38500 arbitrary fluorescent units | 5120 arbitrary fluorescent units | 464 arbitrary fluorescent units | 6540 arbitrary fluorescent units | 201 arbitrary fluorescent units | 14400 arbitrary fluorescent units | 201 arbitrary fluorescent units | 9930 arbitrary fluorescent units | – | – | – | – | – |
| F211-9D1 (antibody, V domains shown) VH: DVQLQESGPGLVKPSQSLSLTCSVTGYSITSDYYWNWIRQFPGNKLEWMAYIGYDGSKNYNPSLKNRISITRDTSKNQFFLKLNSVTTDDTATYYCTRDRANWDDYFDYWGQGTTLTVSS VL: DIVMSQSPSSLAVSVGEKVTMSCKSSQSLLNSRNQKNHLAWYQQKPGQSPKLLIYWASTRESGVPDRFSGDGSGTDFTLTISSVKAEDLAVYYCQQYYTYRTFGGGTKLEIK | – | – | 362 arbitrary fluorescent units | 21400 arbitrary fluorescent units | 70 arbitrary fluorescent units | 41100 arbitrary fluorescent units | 5780 arbitrary fluorescent units | 651 arbitrary fluorescent units | 7810 arbitrary fluorescent units | 108 arbitrary fluorescent units | 17400 arbitrary fluorescent units | 238 arbitrary fluorescent units | 10500 arbitrary fluorescent units | – | – | – | – | – |
| F211-10A9 (antibody, V domains shown) VH: QIQLQQSGPELVKPGAPVKISCKASGYTFTDYYIHWVNQRPGQGLEWIGYIYPGNGHTVYNQKFKVRATLTADNPSSTAYLQLNSLTSEDSGVYFCAYDLFNYWGQGTLVTVSA VL: DIVMTQSPSSLAMSVGQKVTMSCKSSQSLLNSDTQKNFLAWYQQKPGQSPKILVYFASTKESGVPDRFIGSGSGTDFTLTITSVQAEDLADYFCQQYYSIPLTFGAGTKLELK | binds | binds | 11500 arbitrary fluorescent units | 2520 arbitrary fluorescent units | 791 arbitrary fluorescent units | 25800 arbitrary fluorescent units | 2780 arbitrary fluorescent units | 5670 arbitrary fluorescent units | 7450 arbitrary fluorescent units | 319 arbitrary fluorescent units | 227 arbitrary fluorescent units | 412 arbitrary fluorescent units | 240 arbitrary fluorescent units | binds | binds | binds | binds | binds |
